Data on 14 molecules can be found in patent US20220220215A1 (CRESCENDO BIOLOGICS, published 2022).

For assay [1], the target named is T1, recombinant Fc-tagged ectodomain of human CD137 (Acro Biosystems 41B-H5258) (human, UniProt Q07011 24-186).
T1 construct: Bought protein; not shown: Fc tag
In words: SPR, Biacore 8K, single-cycle kinetics; Fc-tagged ectodomain captured on Protein G chip; 1:1 model. On the procedure: (§1) Binding of Humabody® VH constructs was measured using a single-cycle kinetics method using the BIAcore 8K instrument with 90 second sample injections with a sample concentration range of low nanomolar to high nanomolar. […] The Protein G sensor surface was regenerated with a 20 second injection of 10 mM Glycine buffer, pH 1.5 (GE Healthcare BR100354). Data were analysed using a 1:1 binding model in Biacore Insight Evaluation software, including Humabody® VH constructs with two PD-1 arms.

The target in assay [2] is T2, recombinant Fc-tagged ectodomain of human PD1 (Acro Biosystems PD1-H5257) (human, UniProt Q15116 25-170).
T2 construct: Bought protein; not shown: Fc tag
The description is as above. On the procedure:
as §1

The target in assay [3] is human CD137 expressed on cells (Jurkat human CD137 NF-kB luciferase reporter cells; human CD8+ T cells) (human, UniProt Q07011 24-255). In words: cell-based or functional assay.
Assay [4] deals with T3, human CD137 expressed on CHO cells (human, UniProt Q07011 18-255).
T3 construct: also called CHO huCD137; CHO human CD137 cells
The assay can be described thus: FMAT/Mirrorball on CHO huCD137 cells. On the procedure: Binding of His-tagged molecules to CHO human CD137, CHO parent and CHO human PD1 cells was assessed using Fluorescence Microvolume Assay Technology (FMAT). All reagents were prepared in FMAT assay buffer (pH 7.4) containing PBS, 0.1% Bovine Serum Albumin, 0.05% Sodium Azide. […] Fluorescence emission was then measured on the TTP Mirrorball plate reader in the FL2 (502 nm-537 nm) and FL5 (677-800 nm) channels following excitation at 488 nm and 640 nm. Data was gated on FL5 perimeter and peak intensity and the FL2 median mean fluorescence intensity of the gated data used for determination of VH binding. Monovalent CD137 specific Humabody® VH, and trispecific molecules with a CD137 binding arm bound to CHO CD137 expressing cells. Trispecific Humabody® VH, with a PD1 binding arm bound to PD1 expressing cells.

The target of assay [5] is T4, Rhesus CD137-Fc tagged protein (rhesus, UniProt H9Z8K9 24-186).
T4 construct: extracellular domain; The Octet paragraph gives no catalogue number; also called rhCD137-Fc
The assay can be described thus: BLI (Octet RED384), CD137-Fc on Protein G sensor, 1:1 model. On the procedure:
Binding kinetics of purified monovalent VH molecules were measured on a ForteBio Octet RED 384 instrument. Human and Rhesus CD137-Fc tagged protein was diluted to 5 μg/ml in kinetics buffer (0.05% Tween, 1×PBS) and coupled to Protein G biosensors (ForteBio cat no. 18-5082) via the Fc tag. VH were serially diluted (typically 1:2 dilution series starting with 200 nM, VH at the highest concentration) and binding to the CD137-Fc-coupled Protein G biosensors measured. Binding kinetics were determined from the (blank subtracted) sensor gram trace using 1:1 binding models and ForteBio Octet Data Analysis 9.0 software. Example kinetic and binding affinity data obtained is shown Table 18 (monovalent VH).
Background: In BLI a coated tip is dipped into the sample, and binding shifts an interference pattern.

B1: TPP-1408 PD138G7(G109D)-1GS-HSA2-1GS-CD137D (bispecific antibody)
chain: EVQLVESGGGVVRPGGSLRLSCAASGFTFDDYAMSWVRQAPGKGLEWVSGITWNGGSTGYADSVKDRFTISRDNAKNSLYLQMNSLRAEDTALYYCVRDKYSYAWSYDDFDIWGQGTMVTVSSGGGGSEVQLVESGGGLVKPGGSLRLSCAASGFTFSNYNMNWVRQAPGKGLEWVSSISSAGTHIYYADSVKGRFTISRDNAKNSLYLQMNSLRAEDTAVYYCARDPHSTGWYKDFDYWGQGTLVTVSSGGGGSEVQLVESGGGVVQPGGSLRLSCAASGFTFSNYGMHWVRQAPGKGLEWVAVISNDGNTKTYADSVKGRFTISRDNSKNTLYLQMNSLRAEDTAVYYCAQDETTTVTASYYFDYWGQGTLVTVSS
Regarding B1, in assay [1], the dissociation constant (Kd) is 95.1 nM, the koff came out at 0.00383 s⁻¹ and the kon was determined as 40300 M⁻¹ s⁻¹. Besides, in assay [2], the Kd is 4.45 nM, the koff turned out to be 0.00113 s⁻¹ and the kon amounted to 255000 M⁻¹ s⁻¹.

B2: TPP-951: PDA2-6GS-172E1-13-6GS-HSA3-His (bispecific antibody)
chain: EVQLVESGGGVVRPGGSLRLSCAASGFTFDDYAMSWVRQAPGKGLEWVSGITWNAGSTGYADSVKGRFTISRDNAKNSLYLQMNSLRAEDTALYYCVRDKYSYAWSYDDFDIWGQGTMVTVSSGGGGSGGGGSGGGGSGGGGSGGGGSGGGGSEVQLVESGGGVVQPGGSLRLSCAASGFTFSNYGMHWVRQAPGKGLEWVAVISNDGNTKTYADSVKGRFTISRDNSKNTLYLQMNSLRAEDTAVYYCAQDETTTVTASYYFDYWGQGTLVTVSSGGGGSGGGGSGGGGSGGGGSGGGGSGGGGSEVQLLESGGGLVKPGGSLRLSCAASGFTVSSYTMNWVRQAPGKGLEWVSSISSSGRYIYYADSVKGRFTISRDNAKNSLYLQMNSLRAEDTAVYYCARDPRMVGNPHEFDIWGQGTMVTVSSAAAHHHHHH
With B2, in assay [3], the “Jurkat-CD137/CHO-PD-1 Reporter Assay EC50” value was 14.1 nM.

B3: 003BB172-E01-5 (VHH)
VHH: EVQLVESGGGLVQPGGSLRLSCAASGFTFSNYGMHWVRQAPGKRLEWVAVISNDGNTKTYADSVKGRFTISRDNSKNTLYLQMNSLRTEDTAVYYCAQDETTTVTASYYFDYWGQGTLVTVSS
notes: Human VH single domain antibody, monovalent
B3 had an EC50 in assay [4] of 1.29 nM. In assay [5], this molecule had a Kd of 11.5 nM, a koff of 0.00164 s⁻¹ and a kon of 142000 M⁻¹ s⁻¹.

B4: 003BB172-E01-13 (VHH)
VHH: EVQLVESGGGVVQPGGSLRLSCAASGFTFSNYGMHWVRQAPGKGLEWVAVISNDGNTKTYADSVKGRFTISRDNSKNTLYLQMNSLRAEDTAVYYCAQDETTTVTASYYFDYWGQGTLVTVSS
notes: Human VH single domain antibody, monovalent; also called CD137D; 172E1-13
As to B4, the EC50 in assay [4] turned out to be 0.954 nM. Moreover, in assay [5], the affinity, expressed as Kd, was 22.8 nM; the koff came to 0.00253 s⁻¹; the kon is 111000 M⁻¹ s⁻¹.

B5: 003BB172-E01-12 (VHH)
VHH: EVQLVESGGGLVQPGRSLRLSCAASGFTFSNYGMHWVRQAPGKGLEWVAVISNDGNTKTYADSVKGRFTISRDNSKNTLYLQMNSLRAEDTAVYYCAQDETTTVTASYYFDYWGQGTLVTVSS
notes: as for B3
The molecule B5 returned an EC50 in assay [4] of 1.21 nM. In assay [5], this molecule showed a Kd of 38.6 nM, a koff of 0.0023 s⁻¹ and a kon of 59700 M⁻¹ s⁻¹.

B6: 003BB172-E01-11 (VHH)
VHH: EVQLVESGGGVVQPGRSLRLSCAASGFTFSNYGMHWVRQAPGKGLEWVAVISNDGNTKTYADSVKGRFTISRDNSKNTLYLQMNSLRTEDTAVYYCAQDETTTVTASYYFDYWGQGTLVTVSS
notes: as for B3
In turn, B6 displayed an EC50 in assay [4] of 1.21 nM. In assay [5], this molecule had a Kd of 33.1 nM, a koff of 0.0024 s⁻¹ and a kon of 72500 M⁻¹ s⁻¹.

B7: 003BB172-E01-7 (VHH)
VHH: EVQLVESGGGLVQPGGSLRLSCAASGFTFSNYGMHWVRQAPGKGLEWVAVISNDGNTKTYADSVKGRFTISRDNSKNTLYLQMNSLRTEDTAVYYCAQDETTTVTASYYFDYWGQGTLVTVSS
notes: Human VH single domain antibody, monovalent; also called CD137C
Consider B7, for which, in assay [4], it took 1.28 nM to reach a half-maximal effect (EC50). Moreover, in assay [5], the dissociation constant Kd was determined as 40.7 nM, the koff stood at 0.00233 s⁻¹ and the kon was found to be 57300 M⁻¹ s⁻¹.

B8: 003BB172-E01-6 (VHH)
VHH: EVQLVESGGGLVQPGGSLRLSCAASGFTFSNYGMHWVRQAPGKGLEWVAVISNDGNTKTYADSVKGRFTISRDNSKNMLYLQMNSLRTEDTAVYYCAQDETTTVTASYYFDYWGQGTLVTVSS
notes: Human VH single domain antibody, monovalent; also called CD137B
The molecule B8 had an EC50 in assay [4] of 1.08 nM. In assay [5], this molecule returned a Kd of 39 nM, a koff of 0.00287 s⁻¹ and an on-rate constant (kon) of 73600 M⁻¹ s⁻¹.

B9: 003BB172-E01-8 (VHH)
VHH: EVQLVESGGGVVQPGGSLRLSCAASGFTFSNYGMHWVRQAPGKGLEWVAVISNDGNTKTYADSVKGRFTISRDNSKNTLYLQMNSLRTEDTAVYYCAQDETTTVTASYYFDYWGQGTLVTVSS
notes: as for B3
The molecule B9 had an EC50 in assay [4] of 1.08 nM. Further, in assay [5], the Kd is 41.4 nM, the off-rate (koff) came out at 0.00269 s⁻¹ and the kon turned out to be 65000 M⁻¹ s⁻¹.

B10: 003BB172-E01-10 (VHH)
VHH: EVQLVESGGGLVQPGRSLRLSCAASGFTFSNYGMHWVRQAPGKGLEWVAVISNDGNTKTYADSVKGRFTISRDNSKNTLYLQMNSLRTEDTAVYYCAQDETTTVTASYYFDYWGQGTLVTVSS
notes: as for B3
In assay [4], B10 yielded an EC50 of 1.22 nM. In assay [5], this molecule came in with a Kd of 36.9 nM, a koff of 0.00249 s⁻¹ and a kon of 67400 M⁻¹ s⁻¹.

B11: 003BB172-E01-9 (VHH)
VHH: EVQLVESGGGLVQPGGSLRLSCAASGFTFSNYGMHWVRQAPGKGLEWVAVISNDGNTKTYADSVKGRFTISRDNSKNTLYLQMNSLRAEDTAVYYCAQDETTTVTASYYFDYWGQGTLVTVSS
notes: as for B3
Regarding B11, in assay [4], the EC50 worked out at 0.849 nM. Also, in assay [5], the Kd stood at 23 nM, the koff amounted to 0.00235 s⁻¹ and the kon stood at 102000 M⁻¹ s⁻¹.

B12: TPP-1410 PD138G7(G109D)-1GS-CD137A-6GS-HSA2 (bispecific antibody)
chain: EVQLVESGGGVVRPGGSLRLSCAASGFTFDDYAMSWVRQAPGKGLEWVSGITWNGGSTGYADSVKDRFTISRDNAKNSLYLQMNSLRAEDTALYYCVRDKYSYAWSYDDFDIWGQGTMVTVSSGGGGSEVQLVESGGGLVQPGGSLRLSCAASGFTLSNYWMNWVRQAPGKGLEWVANINQDGSERYYVDSVKGRFTISRDNAKNSLYLQMNSLRAEDTAVYYCARGGEGYGVDHYGLDVSGQGTTVTVSSGGGGSGGGGSGGGGSGGGGSGGGGSGGGGSEVQLVESGGGLVKPGGSLRLSCAASGFTFSNYNMNWVRQAPGKGLEWVSSISSAGTHIYYADSVKGRFTISRDNAKNSLYLQMNSLRAEDTAVYYCARDPHSTGWYKDFDYWGQGTLVTVSS
B12: in assay [1], the Kd was 1.47 nM, the koff is 0.000121 s⁻¹ and the on-rate constant (kon) came to 81800 M⁻¹ s⁻¹. Also, in assay [2], the Kd worked out at 7.57 nM, the koff came to 0.00224 s⁻¹ and the kon is 296000 M⁻¹ s⁻¹.

B13: TPP-950: PDA2-6GS-172E1-13-6GS-HSA2-His (bispecific antibody)
chain: EVQLVESGGGVVRPGGSLRLSCAASGFTFDDYAMSWVRQAPGKGLEWVSGITWNAGSTGYADSVKGRFTISRDNAKNSLYLQMNSLRAEDTALYYCVRDKYSYAWSYDDFDIWGQGTMVTVSSGGGGSGGGGSGGGGSGGGGSGGGGSGGGGSEVQLVESGGGVVQPGGSLRLSCAASGFTFSNYGMHWVRQAPGKGLEWVAVISNDGNTKTYADSVKGRFTISRDNSKNTLYLQMNSLRAEDTAVYYCAQDETTTVTASYYFDYWGQGTLVTVSSGGGGSGGGGSGGGGSGGGGSGGGGSGGGGSEVQLVESGGGLVKPGGSLRLSCAASGFTFSNYNMNWVRQAPGKGLEWVSSISSAGTHIYYADSVKGRFTISRDNAKNSLYLQMNSLRAEDTAVYYCARDPHSTGWYKDFDYWGQGTLVTVSSAAAHHHHHH
On to B13, for which, in assay [3], the “Jurkat-CD137/CHO-PD-1 Reporter Assay EC50” value stood at 43 nM.

B14: TPP-1411 PD138G7(G109D)-1GS-CD137A-1GS-HSA2 (bispecific antibody)
chain: EVQLVESGGGVVRPGGSLRLSCAASGFTFDDYAMSWVRQAPGKGLEWVSGITWNGGSTGYADSVKDRFTISRDNAKNSLYLQMNSLRAEDTALYYCVRDKYSYAWSYDDFDIWGQGTMVTVSSGGGGSEVQLVESGGGLVQPGGSLRLSCAASGFTLSNYWMNWVRQAPGKGLEWVANINQDGSERYYVDSVKGRFTISRDNAKNSLYLQMNSLRAEDTAVYYCARGGEGYGVDHYGLDVSGQGTTVTVSSGGGGSEVQLVESGGGLVKPGGSLRLSCAASGFTFSNYNMNWVRQAPGKGLEWVSSISSAGTHIYYADSVKGRFTISRDNAKNSLYLQMNSLRAEDTAVYYCARDPHSTGWYKDFDYWGQGTLVTVSS
As to B14, in assay [1], the Kd stood at 1.93 nM, the koff is 0.000208 s⁻¹ and the kon came to 108000 M⁻¹ s⁻¹. Also, in assay [2], the Kd came out at 4.98 nM, the koff was determined as 0.00267 s⁻¹ and the kon turned out to be 537000 M⁻¹ s⁻¹.

A word on the Kd: it is a measure of binding affinity in units of concentration. Broadly, the koff is a measure of how fast the partners let go of each other. In general, kon refers to a measure of how fast the partners come together. As a reminder, the EC50 is the concentration at which the effect is half-maximal. Read a low EC50 as a more potent agent.
